Results reported in patent US20040180051A1 (published 2004).
Positions count from the first letter of the chain named.

B1: humanized L chain version “b” combined with a chimeric H chain (antibody, V domains shown)
VH: EVQLQQSGTNLVRPGALVKLSCKGSGFNIKDYYMHWVKQRPEQGLEWIGGNDPANGHSMYDPKFQGKASITADTSSNTAYLQLSSLTSEDTAVYFCARDSGYAMDYWGQGTSVTVSS
VL: DIQMTQSPSSLSASVGDRVTITCKASQDIKSFLSWYQQKPGKAPKLLIYYATSLADGVPSRFSGSGSGTDYTLTISSLQPEDFATYYCLQHGESPYTFGGGTKVEIK
notes: expressed in COS-7; also called ch-b
B2: H chain humanized version b/L chain humanized version b antibody (antibody, V domains shown)
VH: QVQLLESGAVLARPGTSVKISCKASGFNIKDYYMHWVKQRPGQGLEWIGGNDPANGHSMYDPKFQGRVTITADTSTNTAYMELSSLRSEDTAIYYCARDSGYAMDYWGQGTLVTVSS
VL: B1 VL
notes: also called b-b
B3: H chain humanized version i/L chain humanized version b2 antibody (antibody, V domains shown)
VH: B2 VH with N77S, A79V, Y80F, I93V
VL: B1 VL with G41E, L46S
notes: also called i-b2
B4: humanized H chain version “b3” combined with the humanized L chain version “b” (antibody, V domains shown)
VH: B2 VH with K38R, R40A
VL: B1 VL
notes: expressed in COS-7; also called b3-b
B5: humanized H chain version “j” combined with the humanized L chain version “b” (antibody, V domains shown)
VH: B2 VH with I70F, T76A, S84R, E89A, I93V
VL: B1 VL
notes: expressed in COS-7; also called j-b
B6: humanized L chain version “c” combined with a chimeric H chain (antibody, V domains shown)
VH: B1 VH
VL: B1 VL with F83I
notes: expressed in COS-7
B7: humanized L chain version “a” combined with a chimeric H chain (antibody, V domains shown)
VH: B1 VH
VL: B1 VL with Y71F
notes: expressed in COS-7
B8: humanized H chain version “g” combined with the humanized L chain version “b” (antibody, V domains shown)
VH: B2 VH with R67K, V68A, I70L, T74E, T76S, N77S, E82Q, T91S, I93V, Y95S
VL: B1 VL
notes: expressed in COS-7; also called g-b
B9: humanized H chain version “i” combined with the humanized L chain version “b1” (antibody, V domains shown)
VH: B2 VH with N77S, A79V, Y80F, I93V
VL: B1 VL with Y36F, A43S, L46T
notes: expressed in COS-7; also called i-b1
B10: humanized H chain version “d” combined with the humanized L chain version “b” (antibody, V domains shown)
VH: B2 VH with T74E, N77S, T91S, I93V, Y95F
VL: B1 VL
notes: expressed in COS-7; also called d-b
B11: humanized H chain version “d3” combined with the humanized L chain version “b” (antibody, V domains shown)
VH: B2 VH with K38R, R40A, T74E, N77S, T91S, I93V, Y95F
VL: B1 VL
notes: expressed in COS-7; also called d3-b
B12: H chain humanized version i/L chain humanized version b antibody (antibody, V domains shown)
VH: B2 VH with N77S, A79V, Y80F, I93V
VL: B1 VL
B13: humanized L chain version “b2” combined with a chimeric H chain (antibody, V domains shown)
VH: B1 VH
VL: B1 VL with G41E, L46S
notes: expressed in COS-7; also called ch-b2
B14: humanized L chain version “b1” combined with a chimeric H chain (antibody, V domains shown)
VH: B1 VH
VL: B1 VL with Y36F, A43S, L46T
notes: expressed in COS-7; also called ch-b1
B15: humanized H chain version “b” combined with the humanized L chain version “c” (antibody, V domains shown)
VH: B2 VH
VL: B1 VL with F83I
notes: The construction of its expression plasmid is not described
B16: humanized H chain version “b” combined with the humanized L chain version “a” (antibody, V domains shown)
VH: B2 VH
VL: B1 VL with Y71F
notes: expressed in COS-7; also called b-a
B17: humanized H chain version “b” combined with the humanized L chain version “b2” (antibody, V domains shown)
VH: B2 VH
VL: B1 VL with G41E, L46S
notes: expressed in COS-7; also called b-b2
B18: humanized H chain version “a” combined with a chimeric L chain (antibody, V domains shown)
VH: QVQLLESGAVLARPGTSVKISCKASGFNIKDYYMHWVKQRPGQGLEWIGGNDPANGHSMYDPKFQGRAKLTAATSASIAYLEFSSLTNEDSAVYYCARDSGYAMDYWGQGTLVTVSS
VL: DIKMTQSPSSMYASLGERVTITCKASQDIKSFLSWYQQKPWKSPKTLIYYATSLADGVPSRFSGSGSGQDYSLTINNLESDDTATYYCLQHGESPYTFGGGTKLEIK
notes: expressed in COS-7
B19: humanized H chain version “b” combined with a chimeric L chain (antibody, V domains shown)
VH: B2 VH
VL: B18 VL
notes: expressed in COS-7; also called b-ch
B20: humanized H chain version “c” combined with a chimeric L chain (antibody, V domains shown)
VH: QVQLLESGAVLARPGTSVKISCKASGFNIKDYYMHWVKQRPGQGLEWIGGNDPANGHSMYDPKFQGRVTMLVDTSKNQFSLRLSSVTAADTAVYYCARDSGYAMDYWGQGTLVTVSS
VL: B18 VL
notes: expressed in COS-7; also called c-ch
B21: humanized H chain version “a” combined with the humanized L chain version “a” (antibody, V domains shown)
VH: B18 VH
VL: B1 VL with Y71F
notes: expressed in COS-7; also called a-a
B22: humanized H chain version “j” combined with a chimeric L chain (antibody, V domains shown)
VH: B2 VH with I70F, T76A, S84R, E89A, I93V
VL: B18 VL
notes: expressed in COS-7; also called j-ch
B23: humanized H chain version “e” combined with a chimeric L chain (antibody, V domains shown)
VH: B2 VH with T69S, T74E, N77K, T78I, S84N, I93V, Y95F
VL: B18 VL
notes: expressed in COS-7; also called e-ch
B24: humanized H chain version “i” combined with a chimeric L chain (antibody, V domains shown)
VH: B2 VH with N77S, A79V, Y80F, I93V
VL: B18 VL
notes: expressed in COS-7; also called i-ch
B25: humanized H chain version “d” combined with a chimeric L chain (antibody, V domains shown)
VH: B2 VH with T74E, N77S, T91S, I93V, Y95F
VL: B18 VL
notes: expressed in COS-7; also called d-ch
B26: chimeric ATR-5 antibody (antibody, V domains shown)
VH: B1 VH
VL: B18 VL
notes: Mouse V regions on human C regions; also called ch-ch; chimeric antibody

Each binder was assayed against T1, human tissue factor (human TF) on human bladder carcinoma cells J82 (human, UniProt P13726 33-295) (assay: cell ELISA on fixed J82 cells;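 further: measures antigen binding in a cell ELISA on J82 cells grown one day in 96-well plates and fixed with 4% paraformaldehyde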).
T1 construct: whole, on cells; Target of the cell ELISA; also called the antigen
B1: binds. B2: binds. B3: binds. B4: binds. B5: binds. B6: binds. B7: binds. B8: binds. B9: binds. B10: binds. B11: binds. B12: binds. B13: binds. B14: binds. B15: binds. B16: binds. B17: binds. B18: binds. B19: binds. B20: binds. B21: binds. B22: binds. B23: binds. B24: binds. B25: binds.

These binders were tested against T1, human tissue factor (human TF) on human … (assay: cell ELISA on fixed J82 cells; reference antibody (CHO DG44 expressed)).
B26: binds.
